Earlier results on 2 substances are cited in PMC10094977.

In series [1] the target is Cav1.2 alpha1C IQ domain 1611-1644 (Homo sapiens) (UniProt Q13936). Put plainly: isothermal titration calorimetry. (Isothermal titration calorimetry measures the heat released or taken up as one component is titrated into another.)
The next series deals with Cav1.2 IQ domain IQ (UniProt Q13936). In words: isothermal titration calorimetry.
Cav1.2 IQ domain IQ, sequence (Q13936 1665-1685): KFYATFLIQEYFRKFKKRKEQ

Cav1.2 alpha1C IQ domain 1611-1644 (Homo sapiens), sequence (Q13936 1611-1644): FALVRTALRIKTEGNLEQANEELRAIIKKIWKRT

One may read the Kd as the constant that tells how readily two partners part at equilibrium. On to Calmodulin C-lobe (from UniProt P0DP23), for which, in series [1], the Kd was 2 nM. Regarding “Ca2+/calmodulin C-lobe C-lobe (from UniProt P0DP23)”, the dissociation constant (Kd) with Cav1.2 IQ domain IQ is 2 nM.
